# Assay results reported in patent US20250011456A1 (VILLANELLE LIFE SCIENCE, published 2025).
# Residue numbers refer to the chain shown, from its start.
# T1: Recombinant Human CD14/His Protein (B294801) (human, UniProt P08571 20-352, limits assumed)
# T1 construct: Bought His-tagged recombinant human CD14; also called recombinant human CD14 antigen; CD14 antigen; not shown: histidine tag
# T1 sequence (looked up): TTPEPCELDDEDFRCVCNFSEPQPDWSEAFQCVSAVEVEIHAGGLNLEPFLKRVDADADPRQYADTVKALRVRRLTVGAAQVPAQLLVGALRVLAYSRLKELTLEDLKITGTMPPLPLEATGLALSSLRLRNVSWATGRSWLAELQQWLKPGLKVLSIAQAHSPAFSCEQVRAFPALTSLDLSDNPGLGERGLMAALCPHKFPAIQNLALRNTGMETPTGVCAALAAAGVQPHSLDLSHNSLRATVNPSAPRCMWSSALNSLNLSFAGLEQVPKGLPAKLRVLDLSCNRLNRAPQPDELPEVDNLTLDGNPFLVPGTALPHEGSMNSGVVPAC
# B1: Antibody No. D6DD3D001 (HU1127-mVH/mVL) (antibody, human IgG1, kappa, V domains shown)
# VH: DVQLQQSGPGLVKPSQSLSLTCTVTGYSITSDSAWNWIRQFPGNRLEWMGYISYSGSTSYNPSLKSRISITRDTSKNQFFLQLNSVTTEDTATYYCVRGLRFAYWGQGTLVTVSS
# VL: DIVLTQSPASLAVSLGQRATISCRASESVDSYVNSFLHWYQQKPGQPPKLLIYRASNLQSGIPARFSGSGSRTDFTLTINPVEADDVATYYCQQSNEDPYTFGGGTKLEIKR
# notes: Mouse variable domains of Atibuclimab on human IgG1 constant regions (hFc, 146 kDa); also called Original IgG1 antibody; mouse antibody
# B2: Antibody No. D6DD3D013 (HU1127-hVH2/hVL3) (antibody, human IgG1, kappa)
# heavy: not shown
# light: DIQLTQSPSSLSASVGDRVTITCRASESVDSYVNSFLHWYQQKPGKAPKLLIYRASNLQSGVPSRFSGSGSRTDFTLTISSLQPEDVATYYCQQSNEDPYTFGQGTKLEIKRTVAAPSVFIFPPSDEQLKSGTASVVCLLNNFYPREAKVQWKVDNALQSGNSQESVTEQDSKDSTYSLSSTLTLSKADYEKHKVYACEVTHQGLSSPVTKSFNRGEC
# notes: Humanized IgG1 (hFc)
# B3: Antibody No. D6DD3D012 (HU1127-hVH1/hVL3) (antibody, human IgG1, kappa, V domains shown)
# VH: QVQLQESGPGLVKPSQTLSLTCTVSGGSISSDSAWNWIRQHPGKGLEWIGYISYSGSTSYNPSLKSRVTISRDTSKNQFSLKLSSVTAADTAVYYCVRGLRFAYWGQGTLVTVSS
# VL: DIQLTQSPSSLSASVGDRVTITCRASESVDSYVNSFLHWYQQKPGKAPKLLIYRASNLQSGVPSRFSGSGSRTDFTLTISSLQPEDVATYYCQQSNEDPYTFGQGTKLEIKR
# notes: Humanized IgG1 (hFc)
# B4: Antibody No. D6DD3D015 (HU1127-hVH4/hVL3) (antibody, human IgG1, kappa)
# heavy: not shown
# light: B2 light
# notes: Humanized IgG1 (hFc)
# B5: Antibody No. D6DD3D014 (HU1127-hVH3/hVL3) (antibody, human IgG1, kappa)
# heavy: not shown
# light: B2 light
# notes: Humanized IgG1 (hFc); Parent of the PTM-site-removed antibodies MPDDAD001-005
# B6: Antibody No. D6DD3D016 (HU1127-hVH5/hVL3) (antibody, human IgG1, kappa)
# heavy: not shown
# light: B2 light
# notes: Humanized IgG1 (hFc)
# B7: Antibody No. D6DD3D003 (HU1127-hVH2/hVL1) (antibody, human IgG1, kappa)
# heavy: not shown
# light: EIVLTQSPATLSLSPGERATLSCRASESVDSYVNSFLHWYQQKPGQAPRLLIYRASNLQSGIPARFSGSGSRTDFTLTISSLEPEDVAVYYCQQSNEDPYTFGQGTKLEIKRTVAAPSVFIFPPSDEQLKSGTASVVCLLNNFYPREAKVQWKVDNALQSGNSQESVTEQDSKDSTYSLSSTLTLSKADYEKHKVYACEVTHQGLSSPVTKSFNRGEC
# notes: Humanized IgG1 (hFc)
# B8: Antibody No. D6DD3D004 (HU1127-hVH3/hVL1) (antibody, human IgG1, kappa)
# heavy: not shown
# light: B7 light
# notes: Humanized IgG1 (hFc)
# B9: Antibody No. D6DD3D002 (HU1127-hVH1/hVL1) (antibody, human IgG1, kappa, V domains shown)
# VH: B3 VH
# VL: EIVLTQSPATLSLSPGERATLSCRASESVDSYVNSFLHWYQQKPGQAPRLLIYRASNLQSGIPARFSGSGSRTDFTLTISSLEPEDVAVYYCQQSNEDPYTFGQGTKLEIKR
# notes: Humanized IgG1 (hFc)
# B10: Antibody No. D6DD3D005 (HU1127-hVH4/hVL1) (antibody, human IgG1, kappa)
# heavy: not shown
# light: B7 light
# notes: Humanized IgG1 (hFc)
# B11: Antibody No. D6DD3D006 (HU1127-hVH5/hVL1) (antibody, human IgG1, kappa)
# heavy: not shown
# light: B7 light
# notes: Humanized IgG1 (hFc)
# B12: Antibody No. D6DD3D008 (HU1127-hVH2/hVL2) (antibody, human IgG1, kappa)
# heavy: not shown
# light: DIVLTQSPDSLAVSLGERATINCRASESVDSYVNSFLHWYQQKPGQPPKLLIYRASNLQSGVPDRFSGSGSRTDFTLTISSLQAEDVAVYYCQQSNEDPYTFGQGTKLEIKRTVAAPSVFIFPPSDEQLKSGTASVVCLLNNFYPREAKVQWKVDNALQSGNSQESVTEQDSKDSTYSLSSTLTLSKADYEKHKVYACEVTHQGLSSPVTKSFNRGEC
# notes: Humanized IgG1 (hFc)
# B13: Antibody No. D6DD3D011 (HU1127-hVH5/hVL2) (antibody, human IgG1, kappa)
# heavy: not shown
# light: B12 light
# notes: Humanized IgG1 (hFc)
# B14: Antibody No. D6DD3D007 (HU1127-hVH1/hVL2) (antibody, human IgG1, kappa, V domains shown)
# VH: B3 VH
# VL: DIVLTQSPDSLAVSLGERATINCRASESVDSYVNSFLHWYQQKPGQPPKLLIYRASNLQSGVPDRFSGSGSRTDFTLTISSLQAEDVAVYYCQQSNEDPYTFGQGTKLEIKR
# notes: Humanized IgG1 (hFc)
# B15: Antibody No. D6DD3D010 (HU1127-hVH4/hVL2) (antibody, human IgG1, kappa)
# heavy: not shown
# light: B12 light
# notes: Humanized IgG1 (hFc)
# B16: Antibody No. D6DD3D009 (HU1127-hVH3/hVL2) (antibody, human IgG1, kappa)
# heavy: not shown
# light: B12 light
# notes: Humanized IgG1 (hFc)
# B17: Antibody No. MPDDAD001 (HU1127-hVH3/hVL3-1) (antibody, IgG1, V domains shown)
# VH: B3 VH with V2L, Q16E, H41P
# VL: DIQLTQSPSSLSASVGDRVTITCRASESVDSYVDSFLHWYQQKPGKAPKLLIYRASNLQSGVPSRFSGSGSRTDFTLTISSLQPEDVATYYCQQSNEDPYTFGQGTKLEIK
# notes: D6DD3D014 with the light chain PTM site NS (VL amino acids 34, 35) changed to DS; Tested as a recombinant antibody with hFc tag, 144 kDa
# B18: Antibody No. MPDDAD004 (HU1127-hVH3/hVL3-4) (antibody, V domains shown)
# VH: B3 VH with V2L, Q16E, H41P
# VL: B17 VL with D34N, S35A
# notes: D6DD3D014 with the light chain PTM site NS (VL amino acids 34, 35) changed to NA; Tested as a recombinant antibody with hFc tag, 144 kDa
# B19: Antibody No. MPDDAD002 (HU1127-hVH3/hVL3-2) (antibody, V domains shown)
# VH: B3 VH with V2L, Q16E, H41P
# VL: B17 VL with D34S
# notes: D6DD3D014 with the light chain PTM site NS (VL amino acids 34, 35) changed to SS; Tested as a recombinant antibody with hFc tag, 144 kDa
# B20: Antibody No. MPDDAD005 (HU1127-hVH3/hVL3-5) (antibody, V domains shown)
# VH: B3 VH with V2L, Q16E, H41P
# VL: B17 VL with D34Q
# notes: D6DD3D014 with the light chain PTM site NS (VL amino acids 34, 35) changed to QS; Tested as a recombinant antibody with hFc tag, 144 kDa
# B21: Antibody No. MPDDAD003 (HU1127-hVH3/hVL3-3) (antibody, V domains shown)
# VH: B3 VH with V2L, Q16E, H41P
# VL: B17 VL with D34T
# notes: D6DD3D014 with the light chain PTM site NS (VL amino acids 34, 35) changed to TS; Tested as a recombinant antibody with hFc tag, 144 kDa
# Biological target: T1, Recombinant Human CD14/His Protein …
# Test: SPR (Biacore 8K), antibody captured on Protein A chip, CD14-His analyte 0.78125-25 nM, 1:1 binding
# Procedure: The Biacore 8K platform was used to test the kinetic and affinity properties of the antibody. The operation was carried out according to the system instructions and indications.
# 15 humanized antibodies (numbered D6DD3D002-D6DD3D0016) and 1 mouse antibody (number D6DD3D001) were tested. […] The capture concentration was 1 μg/mL. In Table 8-3, the change factor is the ratio of the equilibrium dissociation constant KD of the humanized to mouse antibody, and reflects the change in affinity after humanization.
Change Factor (KD relative to mouse antibody D6DD3D001),Kd,koff,kon,Binder
1,0.485 nM,0.000858 s⁻¹,1.77e+06 M⁻¹ s⁻¹,B1
3.32,1.61 nM,0.00282 s⁻¹,1.76e+06 M⁻¹ s⁻¹,B2
3.69,1.79 nM,0.00293 s⁻¹,1.64e+06 M⁻¹ s⁻¹,B3
1.1,0.532 nM,0.000843 s⁻¹,1.59e+06 M⁻¹ s⁻¹,B4
3.71,1.8 nM,0.00318 s⁻¹,1.77e+06 M⁻¹ s⁻¹,B5
1.39,0.672 nM,0.000904 s⁻¹,1.35e+06 M⁻¹ s⁻¹,B6
3.34,1.62 nM,0.00295 s⁻¹,1.82e+06 M⁻¹ s⁻¹,B7
4.1,1.99 nM,0.00326 s⁻¹,1.64e+06 M⁻¹ s⁻¹,B8
3.57,1.73 nM,0.00292 s⁻¹,1.69e+06 M⁻¹ s⁻¹,B9
1.09,0.529 nM,0.000798 s⁻¹,1.51e+06 M⁻¹ s⁻¹,B10
1.24,0.602 nM,0.000862 s⁻¹,1.43e+06 M⁻¹ s⁻¹,B11
3.24,1.57 nM,0.00329 s⁻¹,2.09e+06 M⁻¹ s⁻¹,B12
1.32,0.639 nM,0.00109 s⁻¹,1.71e+06 M⁻¹ s⁻¹,B13
3.34,1.62 nM,0.00342 s⁻¹,2.11e+06 M⁻¹ s⁻¹,B14
1.14,0.555 nM,0.00105 s⁻¹,1.9e+06 M⁻¹ s⁻¹,B15
3.9,1.89 nM,0.00379 s⁻¹,2.01e+06 M⁻¹ s⁻¹,B16

# Biological target: T1, Recombinant Human CD14/His Protein …
# Test: SPR (Biacore 8K), antibody captured (1 ug/mL) on Protein A chip, CD14-His analyte 0.1953125-25 nM, 1:1 binding
# Procedure: The Biacore 8K platform was used to test the kinetic and affinity properties of the antibody, operating according to system instructions and indications.
# Results of Affinity Detection. The affinity of the six antibodies was measured at saturation concentration. […] Change factor is described above.
Change Factor (KD relative to mouse antibody D6DD3D001),Kd,koff,kon,Binder
1,0.864 nM,0.00108 s⁻¹,1.25e+06 M⁻¹ s⁻¹,B1
8.66,7.48 nM,0.00633 s⁻¹,847000 M⁻¹ s⁻¹,B17
6.86,5.93 nM,0.0046 s⁻¹,775000 M⁻¹ s⁻¹,B18
3.24,2.8 nM,0.00362 s⁻¹,1.29e+06 M⁻¹ s⁻¹,B19
5.65,4.88 nM,0.00544 s⁻¹,1.11e+06 M⁻¹ s⁻¹,B20
2.34,2.02 nM,0.0026 s⁻¹,1.29e+06 M⁻¹ s⁻¹,B21
